According to patent US20250011391A1, “ULTRA LIGHT-SENSITIVE NEUROPSIN-BASED OPTOGENETIC TOOL FOR ACTIVATING G q-COUPLED SIGNALING AND/OR ACTIVATING CELLS” (GENANS BIOTECHNOLOGY CO., LTD, priority 2021, published 2025):
“Also recorded” adds a separate entry of the source. Numbered stars: 1 amine (or outer) side, 2 acyl side, 3 side chain; on linkers, the order of the positions; unused ones are H or OH. Bridge positions count the residues as written; N and C are the ends. Square brackets hold non-standard residues; d marks the D form. Peptide text beside a SMILES is read from it. X1 = CC(=O)NC(C(=O)OC(C(C)C)C(N[*:1])C(=O)[*:2])C(O)C(C)C; PhLac = O=C(O)[CH](O)Cc1ccccc1; NMeT = CN[CH](C(=O)O)[CH](C)O; NMeA = CN[CH](C)C(=O)O; NMeDha = C=C(NC)C(=O)O

Key:
Gq proteins [1] = target: Gq proteins
Gq proteins [2] = target: Gq proteins; remark: listed apart in the source
[3] = tested on: astrocytes within the mouse S1 cortex; experiment: In vivo two-photon imaging (920 nm) of ATP release (GRABATP sensor) following astrocyte activation; conditions: eight hours after intraperitoneal LPS
[4] = tested on: Gq signaling in HEK 293T cells; experiment: IP1 accumulation in Opn5-expressing HEK 293T cells; format: cell-based; conditions: 100 μW/mm2, 470 nm; for effect on light-evoked IP1 accumulation in cOpn5-expressing cells: YM-254890 treatment, 3 min; for light-induced increase in the level of inositol phosphate (IP1): continuous light 3 min
Description: (§1) Whether heterologous expression of the Opn5 orthologs from chicken, turtles, humans and mice (which share 80-90% protein sequence identity) have the capacity to mediate blue light-induced Gq signaling activation within HEK 293T cells is tested (FIG. 1a and table 7). Blue light for stimulation and the red intracellular calcium indicator Calbryte™ 630 AM dye are used to monitor the relative Ca^2+ response (FIG. 1b).
f, YM suppressed the IP1 accumulation evoked by continuous light stimulation (3 min; 100 μW/mm^2; 470 nm) in cOpn5-expressing HEK 293T cells (Left). ***P<0.0001, *P=0.0128; Tukey's multiple comparisons test.

[5] = tested on: Gq signaling in HEK 293T cells; experiment: Light-induced Ca2+ signal (Calbryte 630 AM dye) in opsin-expressing HEK 293T cells; format: cell-based; conditions: for light-induced increase in Ca2+ signal: blue light 10 s, 100 μW/mm2, 488 nm, no exogenous retinal
Description: as §1
b, Pseudocolor images of the Ca2+ signal before and after blue light stimulation (10 s; 100 μW/mm^2; 488 nm) in HEK 293T cells expressing Opn5 from three species (Gallus gallus, Homo sapiens, and Mus musculus). Scale bar, 10 μm.
Characterizing the light-activating properties of cOpn5 heterologously expressed in HEK 293T cells is performed. […] The effects of different light durations on cOpn5-expressing HEK 293T cells are tested. […] Therefore, the light sensitivity of cOpn5 is 3-4 orders of magnitude higher than the reported values of the light-sensitive Gq-coupled GPCRs and even 2-3 orders higher than those of the commonly used optogenetic tool Channelrhodopsin-2 (ChR2)(Lin, 2011; Zhang et al., 2006) (table 8).
The performance of cOpn5 to that of opto-a1AR, a chimera GPCR engineered by mixing rhodopsin with Gq-coupled adrenergic receptor is compared. […] The performance of cOpn5 to that of opn4, a natural opsin which was reported as a tool for Gq signaling activating is also compared. […] Therefore, compared with existing opsin-based tools (opto-a1AR and opn4), cOpn5 is much more light-sensitive (˜3 orders more sensitive), requires much shorter time exposure (10 ms vs. 60 s), and produces stronger responses. […]
Experiments description: the following table 9 is a partial list of cOpn5 orthologs from vertebrata tested in the present invention. Whole genes of all reported opsin5 orthologs from vertebrata (the vertebrates subphylum, including rotundia, cartilaginous fishes, bony fishes, Amphibia, reptila, ornitha and mammals) are synthetized, and expressed in HEK 293T cells. Calcium imaging with or without 470 nm blue light stimulation is performed to test the sensitivity of the opsin 5 orthologs in response to light. The time course of light-induced calcium signal reveal the activated degree of Gq signaling pathway and the sensitivity of these orthologs.

Gi signaling = experiment: cAMP levels in Opn5-expressing HEK 293T cells after photostimulation; format: cell-based; conditions: with retinal (10 μM retinal preincubation)
Description: as §1
f, Light has no effect on cAMP levels (10 μM forskolin preincubation) in cOpn5-expressing HEK 293T cells without additional retinal in the medium (left panel).

in vivo astrocytes = conditions: cited from earlier work
HEK293-TRPC3 cells = conditions: cited from earlier work

## Chicken Opn5 (opsin 5, neuropsin) (receptor)
Gq proteins [1]
  light-induced Ca^2+ signal (Calbryte 630 AM) in HEK 293T cells: 3 ΔF/F

## human OPN4 (melanopsin) (from UniProt Q9UHM6) (receptor)
Gq proteins [2]
  light-induced Ca^2+ signal in HEK 293T cells: 1 ΔF/F

## lipopolysaccharide [LPS]
[3]
  increase of ATP flash events over basal condition: ~6 fold
[3]; mice expressing GRABATP alone
  ATP flash frequency: ~2 flashes per min

## opto-a1AR (receptor)
Gq proteins [2]
  light-induced Ca^2+ signal in HEK 293T cells: 0.5 ΔF/F

## Turtle Opn5 (opsin 5) (receptor)
Gq proteins [1]
  light-induced Ca^2+ signal (Calbryte 630 AM) in HEK 293T cells: 3 ΔF/F

## C=C1C(=O)NC(C)C(=O)N(C)C(C)C(=O)NC(C(OC(=O)C(NC(C)=O)C(O)C(C)C)C(C)C)C(=O)N(C)C(C(C)OC)C(=O)OC(C)C(NC(C)=O)C(=O)OC(Cc2ccccc2)C(=O)N1C (centres unmarked) [YM-254890, reference compound] (Ac-T[PhLac][NMeDha]A[NMeA][X1][NMeT](Me); ester 1-C; configuration not given here)
[4]
  effect on light-evoked IP1 accumulation in cOpn5-expressing cells: reduced
[4]; listed as YM
  effect on light-evoked IP1 accumulation in cOpn5-expressing cells: suppressed
[5]; YM-254890 10 nM preincubation, cOpn5-expressing HEK 293T cells
  effect on cOpn5-mediated, light-induced Ca2+ signals: reversibly abolishes; also recorded: reversibly blocked
[5]; YM-254890 10 nM, turtle Opn5-expressing HEK 293T cells
  effect on turtle Opn5-mediated, light-induced Ca2+ signals: reversibly blocked

## hOPN5: Human (Homo sapiens) Opn5 ortholog, GenBank AY377391.1 [reference compound]
[4]; listed as human OPN5
  light-induced increase in the level of inositol phosphate (IP1): not
[4]; listed as human Opn5
  light-induced increase in the level of inositol phosphate (IP1): no significant difference
[5]
  light-induced increase in Ca2+ signal: no light effect
Gi signaling
  effect of blue light illumination on cAMP levels: effectively reduces cAMP levels

B1: human melanopsin: a natural opsin (melanopsin, Opn4) reported as a tool for Gq signaling activating (protein)
chain: MNPPSGPRVPPSPTQEPSCMATPAPPSWWDSSQSSISSLGRLPSISPTAPGTWAAAWVPLPTVDVPDHAHYTLGTVILLVGLTGMLGNLTVIYTFCRSRSLRTPANMFIINLAVSDFLMSFTQAPVFFTSSLYKQWLFGETGCEFYAFCGALFGISSMITLTAIALDRYLVITRPLATFGVASKRRAAFVLLGVWLYALAWSLPPFFGWSAYVPEGLLTSCSWDYMSFTPAVRAYTMLLCCFVFFLPLLIIIYCYIFIFRAIRETGRALQTFGACKGNGESLWQRQRLQSECKMAKIMLLVILLFVLSWAPYSAVALVAFAGYAHVLTPYMSSVPAVIAKASAIHNPIIYAITHPKYRVAIAQHLPCLGVLLGVSRRHSRPYPSYRSTHRSTLTSHTSNLSWISIRRRQESLGSESEVGWTHMEAAAVWGAAQQANGRSLYGQGLEDLEAKAPPRPQGHEAETPGKTKGLIPSQDPRM
In vivo astrocytes
  Light Sensitivity: 7 mW/mm^2
  Response amplitude: Ca2+ event frequence: ~2 (ΔF/F)
  change in Ca2+ amplitude: no significant
[5]; OPN4-expressing cells, 25 s light, without ATR
  effect of light on Ca2+ signals without ATR: lack of effect
[5]; Table 8, HEK 293T
  Light Sensitivity: 40 mW/mm^2
[5]; Table 8, HEK 293T, light as in the row's sensitivity and duration columns
  Response amplitude: Ca2+ response amplitude: ~0.646 (ΔF/F)
[5]; opn4-expressing cells, 25 s, 40 mW/mm2, additional retinal
  Ca2+ signal increase: ~1 ΔF/F

B2: mouse melanopsin (Opn4): mouse melanopsin, literature optogenetic tool in Table 8 (protein, UniProt Q9QXZ9 1-521, looked up)
Melanopsin: MDSPSGPRVLSSLTQDPSFTTSPALQGIWNGTQNVSVRAQLLSVSPTTSAHQAAAWVPFPTVDVPDHAHYTLGTVILLVGLTGMLGNLTVIYTFCRNRGLRTPANMFIINLAVSDFLMSVTQAPVFFASSLYKKWLFGETGCEFYAFCGAVFGITSMITLTAIAMDRYLVITRPLATIGRGSKRRTALVLLGVWLYALAWSLPPFFGWSAYVPEGLLTSCSWDYMTFTPQVRAYTMLLFCFVFFLPLLIIIFCYIFIFRAIRETGRACEGCGESPLRQRRQWQRLQSEWKMAKVALIVILLFVLSWAPYSTVALVAFAGYSHILTPYMSSVPAVIAKASAIHNPIIYAITHPKYRVAIAQHLPCLGVLLGVSGQRSHPSLSYRSTHRSTLSSQSSDLSWISGRKRQESLGSESEVGWTDTETTAAWGAAQQASGQSFCSQNLEDGELKASSSPQVQRSKTPKVPGPSTCRPMKGQGARPSSLRGDQKGRLAVCTGLSECPHPHTSQFPLAFLEDDVTLRHL
HEK293-TRPC3 cells; (500 nm)
  Light Sensitivity: 1e+15 photons s^−1 cm^−2
HEK293-TRPC3 cells
  Response amplitude: Ca2+ response ampitude: ~0.1 (ΔF/F)

B3: tOpn5: Turtle (Chelonia mydas) Opn5 ortholog, SEQ ID NO:2, GenBank XM_007068312.4 (protein)
chain: MASNHSTSPQDDHLPHYLQDEDPFASKLSREADIVAGFYLTIIGVLSTFGNGYVLFMSLKRKKKLKPAEIMTVNLAMCDLGISVVGKPFSIISFFSHRWVFGWLGCRWYGWAGFFFGCGSLITLTAVSLDRYLKICHLTYGTWLKRHHAFICLAIIWAYATFWATVPFAGLGNYAPEPFGTSCTLDWWLAQGSVAGQAFILNILFFCLLLPTAVIVFSYVKIIAKVKSSAKEVAHYDTRIQNSHVLEIKLTKVAMLICAGFLIAWIPYAVVSVWSAFGQPDSVPIQVSVIPTLLAKSAAMYNPIIYQVIDCKFSCCRSLQKKSSLKKSRLYTISGNREPTEMNETHLEL
modifications: Chelonia mydas
[5]
  light-induced increase in Ca2+ signal: ~3 ΔF/F

B4: mOpn5: Mouse (Mus musculus) Opn5 ortholog, GenBank NM_181753.4 (protein)
chain: MALNHTALPQDERLPHYLRDEDPFASKLSWEADLVAGFYLTIIGILSTFGNGYVLYMSSRRKKKLRPAEIMTINLAVCDLGISVVGKPFTIISCFCHRWVFGWFGCRWYGWAGFFFGCGSLITMTAVSLDRYLKICYLSYGVWLKRKHAYICLAVIWAYASFWTTMPLVGLGDYAPEPFGTSCTLDWWLAQASGGGQVFILSILFFCLLLPTAVIVFSYAKIIAKVKSSSKEVAHFDSRIHSSHVLEVKLTKVAMLICAGFLIAWIPYAVVSVWSAFGRPDSIPIQLSVVPTLLAKSAAMYNPIIYQVIDYRFACCQAGGLRGTKKKSLEDFRLHTVTAVRKSSAVLEIHPESSSRFTSAHVMDGESHSNDGDCGKK
[5]
  light-induced increase in Ca2+ signal: no light effect
Gi signaling
  effect of blue light illumination on cAMP levels: effectively reduces cAMP levels
